Data as given in patent publication US20210388105A1 (ELPISCIENCE SUZHOU BIOPHARMA, published 2021).
Positions count from the first letter of the chain named. Values belong to the binder of their own block, whether it stands above or below them.

How the values were obtained:
[1] = biological target: T1, human CD39 (full length, on cells) (human, UniProt P49961 1-510); test: FACS, MOLP-8 cells
T1 construct: Recombinant on CHOK1-hCD39 cells or natural on SK-MEL-28, SK-MEL-5 and MOLP-8 cells; the cell line is named under assay; also called hCD39; ENTPD1
T1 sequence: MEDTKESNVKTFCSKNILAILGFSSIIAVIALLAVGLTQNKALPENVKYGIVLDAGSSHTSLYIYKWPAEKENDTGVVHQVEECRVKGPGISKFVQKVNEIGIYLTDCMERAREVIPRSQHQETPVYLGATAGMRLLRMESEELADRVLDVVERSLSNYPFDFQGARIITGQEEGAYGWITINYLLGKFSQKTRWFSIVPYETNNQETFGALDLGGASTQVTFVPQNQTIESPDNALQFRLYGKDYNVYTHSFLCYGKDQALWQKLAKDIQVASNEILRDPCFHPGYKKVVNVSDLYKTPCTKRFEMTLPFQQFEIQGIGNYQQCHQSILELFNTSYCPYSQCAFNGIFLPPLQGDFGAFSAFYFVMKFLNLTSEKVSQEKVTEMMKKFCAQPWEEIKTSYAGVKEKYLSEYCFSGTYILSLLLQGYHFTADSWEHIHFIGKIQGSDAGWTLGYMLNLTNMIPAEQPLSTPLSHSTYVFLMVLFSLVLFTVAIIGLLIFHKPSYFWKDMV
Procedure: Similarly, human CD39 expressing cells SK-MEL-5, SK-MEL-28 or MOLP-8, were incubated with a gradient concentration of anti-CD39 antibodies for 30 minutes at 4° C. Cells were washed 3 times using FACS buffer and next incubated with fluorescence labelled secondary antibody (goat-anti-mouse IgG or goat anti-human IgG) for 30 minutes at 4° C. Cells were washed 3 times and then re-suspended in FACS buffer and analyzed by flow cytometry analysis on BD Celesta. Data plotted and analyzed using GraphPad Prism 8.02.
The binding affinity of the humanized antibodies for c23 was determined by FACS, using similar methods as described in Example 3.2. The c23 humanized antibody clones showing good binding affinity are listed in below Table 19 and Table 20, and also shown in FIGS. 7A, 7B and FIG. 8. EC₅₀ is the concentration of the indicated antibodies to reach 50% of the signal in this assay.

[2] = biological target: T1, human CD39 (full length, on cells); test: cell-based or functional assay
[3] = biological target: T2, human CD39 (protein; form not stated) (human, UniProt P49961 38-478, limits assumed); test: Octet (BLI), antibody on sensor, CD39 in solution
T2 construct: also called ENTPD1; ENTPDase 1
T2 sequence: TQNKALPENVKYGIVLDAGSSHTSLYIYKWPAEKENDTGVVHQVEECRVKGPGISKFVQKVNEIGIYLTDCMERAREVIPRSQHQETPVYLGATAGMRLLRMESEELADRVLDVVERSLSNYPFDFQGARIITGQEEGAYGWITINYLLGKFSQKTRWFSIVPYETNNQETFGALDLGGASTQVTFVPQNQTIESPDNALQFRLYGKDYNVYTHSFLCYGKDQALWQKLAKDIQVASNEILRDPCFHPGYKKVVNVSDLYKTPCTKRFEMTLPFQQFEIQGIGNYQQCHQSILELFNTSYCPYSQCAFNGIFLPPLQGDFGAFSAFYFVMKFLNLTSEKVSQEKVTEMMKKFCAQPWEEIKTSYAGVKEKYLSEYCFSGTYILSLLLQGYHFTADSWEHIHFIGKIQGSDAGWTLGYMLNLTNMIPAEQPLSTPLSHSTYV
Procedure: Briefly, the antibodies were coupled on sensors and then the sensors were dipped into CD39 gradients (start at 200 nM, with 2-fold dilution and totally 8 doses). Their binding responses were measured in real-time and results were fit globally.

EC50 [1]: 0.979 nM
ATPase inhibition IC50 on SK-MEL-28 cells [2]: 0.767 nM
B1: hu23.H2L2 (antibody, V domains shown)
VH: QVQLVQSGAEVKKPGASVKVSCKASGYNLKDTFLHWVRQAPGQGLEWMGRIDPANGNIKYDPKFQGRVTITADTSASTAYMELSSLRSEDTAVYYCANSPYYYGSGYRIFDVWGQGTTVTVSS
VL: EIVLTQSPATLSLSPGERATLSCSAFSSVNYMHWYQQKPGQAPRLLIYTTSNLASGIPARFSGSGSGTDYTLTISSLEPEDFAVYYCQQRSTYPFTFGQGTKLEIK
notes: humanized c23

EC50 [1]: 0.25 nM
ATPase inhibition IC50 on SK-MEL-28 cells [2]: 0.144 nM
B2: hu23.H7L5 (antibody, V domains shown)
VH: B1 VH with Q1E, V20L, R38K, M48I, R67K, V68A, I70L, S77N, M81L, S84I
VL: B1 VL with E1Q, A59T, D69S
notes: humanized c23

EC50 [1]: 0.237 nM
B3: hu23.H6L6 (antibody, V domains shown)
VH: B1 VH with Q1E, V20L, M48I, V68A, S77N, S84I
VL: B1 VL with E1Q, L13A, R44K, I57V, A59T, D69S, L77M
notes: humanized c23

EC50 [1]: 0.25 nM
B4: hu23.H7L7 (antibody, V domains shown)
VH: B1 VH with Q1E, V20L, R38K, M48I, R67K, V68A, I70L, S77N, M81L, S84I
VL: B1 VL with E1Q, L13A, A19V, L21I, S22T, R44K, I57V, A59T, D69S, L77M
notes: humanized c23

EC50 [1]: 0.271 nM
ATPase inhibition IC50 on SK-MEL-28 cells [2]: 0.121 nM
B5: hu23.H7L6 (antibody, V domains shown)
VH: B1 VH with Q1E, V20L, R38K, M48I, R67K, V68A, I70L, S77N, M81L, S84I
VL: B1 VL with E1Q, L13A, R44K, I57V, A59T, D69S, L77M
notes: humanized c23

EC50 [1]: 0.122 nM
B6: hu23.H6L7 (antibody, V domains shown)
VH: B1 VH with Q1E, V20L, M48I, V68A, S77N, S84I
VL: B1 VL with E1Q, L13A, A19V, L21I, S22T, R44K, I57V, A59T, D69S, L77M
notes: humanized c23

EC50 [1]: 1.01 nM
ATPase inhibition IC50 on SK-MEL-28 cells [2]: 0.487 nM
B7: hu23.H4L4 (antibody, V domains shown)
VH: B1 VH with V20L, R38K, M48I, V68A, I70L, M81L
VL: B1 VL with L13A, A19V, L21I, L77M
notes: humanized c23

EC50 [1]: 3.29 nM
B8: hu23.H3L3 (antibody, V domains shown)
VH: B1 VH with V20L, M48I, V68A
VL: B1 VL with L13A, L77M
notes: humanized c23

EC50 [1]: 1.15 nM
B9: hu23.H4L2 (antibody, V domains shown)
VH: B1 VH with V20L, R38K, M48I, V68A, I70L, M81L
VL: B1 VL
notes: humanized c23

EC50 [1]: 2.03 nM
B10: hu23.H2L3 (antibody, V domains shown)
VH: B1 VH
VL: B1 VL with L13A, L77M
notes: humanized c23

EC50 [1]: 0.366 nM
ATPase inhibition IC50 on SK-MEL-28 cells [2]: 0.147 nM
B11: hu23.H7L1 (antibody, V domains shown)
VH: B1 VH with Q1E, V20L, R38K, M48I, R67K, V68A, I70L, S77N, M81L, S84I
VL: B1 VL with Y70F
notes: humanized c23

EC50 [1]: 0.593 nM
B12: hu23.H6L5 (antibody, V domains shown)
VH: B1 VH with Q1E, V20L, M48I, V68A, S77N, S84I
VL: B1 VL with E1Q, A59T, D69S
notes: humanized c23

EC50 [1]: 2.77 nM
B13: hu23.H1L3 (antibody, V domains shown)
VH: B1 VH with G44R, A72R, N98R
VL: B1 VL with L13A, L77M
notes: humanized c23

EC50 [1]: 1.46 nM
B14: hu23.H2L4 (antibody, V domains shown)
VH: B1 VH
VL: B1 VL with L13A, A19V, L21I, L77M
notes: humanized c23

EC50 [1]: 0.179 nM
B15: hu23.H5L7 (antibody, V domains shown)
VH: B1 VH with S77N, S84I
VL: B1 VL with E1Q, L13A, A19V, L21I, S22T, R44K, I57V, A59T, D69S, L77M
notes: humanized c23

EC50 [1]: 1.61 nM
B16: hu23.H3L4 (antibody, V domains shown)
VH: B1 VH with V20L, M48I, V68A
VL: B1 VL with L13A, A19V, L21I, L77M
notes: humanized c23

EC50 [1]: 1.16 nM
ATPase inhibition IC50 on SK-MEL-28 cells [2]: 0.964 nM
B17: hu23.H1L2 (antibody, V domains shown)
VH: B1 VH with G44R, A72R, N98R
VL: B1 VL
notes: humanized c23

EC50 [1]: 65.9 nM
B18: hu23.H2L1 (antibody, V domains shown)
VH: B1 VH
VL: B1 VL with Y70F
notes: humanized c23

EC50 [1]: 1.34 nM
B19: hu23.H3L2 (antibody, V domains shown)
VH: B1 VH with V20L, M48I, V68A
VL: B1 VL
notes: humanized c23

binding result [1]: no binding
B20: hu23.H4L1 (antibody, V domains shown)
VH: B1 VH with V20L, R38K, M48I, V68A, I70L, M81L
VL: B1 VL with Y70F
notes: humanized c23

EC50 [1]: 0.246 nM
B21: hu23.H6L1 (antibody, V domains shown)
VH: B1 VH with Q1E, V20L, M48I, V68A, S77N, S84I
VL: B1 VL with Y70F
notes: humanized c23

EC50 [1]: 1.5 nM
ATPase inhibition IC50 on SK-MEL-28 cells [2]: 0.59 nM
B22: hu23.H1L4 (antibody, V domains shown)
VH: B1 VH with G44R, A72R, N98R
VL: B1 VL with L13A, A19V, L21I, L77M
notes: humanized c23

EC50 [1]: 1.87 nM
B23: hu23.H4L3 (antibody, V domains shown)
VH: B1 VH with V20L, R38K, M48I, V68A, I70L, M81L
VL: B1 VL with L13A, L77M
notes: humanized c23

EC50 [1]: 0.262 nM
B24: hu23.H5L1 (antibody, V domains shown)
VH: B1 VH with S77N, S84I
VL: B1 VL with Y70F
notes: humanized c23

EC50 [1]: ~77.1 nM
B25: hu23.H1L1 (antibody, V domains shown)
VH: B1 VH with G44R, A72R, N98R
VL: B1 VL with Y70F
notes: humanized c23

EC50 [1]: 0.202 nM
ATPase inhibition IC50 on SK-MEL-28 cells [2]: 0.13 nM
B26: hu23.H5L6 (antibody, V domains shown)
VH: B1 VH with S77N, S84I
VL: B1 VL with E1Q, L13A, R44K, I57V, A59T, D69S, L77M
notes: humanized c23

Kd [3]: 0.839 nM
koff [3]: 0.000326 s⁻¹
kon [3]: 389000 M⁻¹ s⁻¹
B27: hu14.H1L2 (antibody, V domains shown)
VH: EVQLVESGGGLVKPGGSLRLSCAASGFTFSKYWMNWVRQAPGKGLEWVGEIRLKSNKYGTHYAESVKGRFTISRDDSKNTLYLQMNSLKTEDTAVYYCTTQLDLYWFFDVWGQGTTVTVSS
VL: EIVLTQSPATLSLSPGERATLSCRASQSISDYLHWYQQKPGQSPRLLIYYASQSISGIPARFSGSGSGTDFTLTISSLEPEDFAVYFCQNGHSLPLTFGGGTKLEIK
notes: humanized c14
